From article PMC10981699, “Caldomycin, a new guanidopolyamine produced by a novel agmatine homocoupling enzyme involved in homospermidine biosynthesis” (Scientific Reports, 2024)

Columns and labels:
[1] = substrate: N=C(N)NCCCCN; assay: homospermidine formation by HPLC, coupled with TtSpeBap; assay type: biochemical, Thermus thermophilus; conditions: 50 mM Tris-HCl pH 8.5, 1 mM NAD+, 10 µM MnCl2, 65 °C, TtSpeBap as coupling enzyme, agmatine is both donor and acceptor
[2] = substrate: N=C(N)NCCCCNCCCCNC(=N)N; assay: urea release, Quantichrome urea assay; assay type: biochemical, Thermus thermophilus; conditions: assay as in ref. 26
Description: urea release, Quantichrome urea assay on TtSpeBap (aminopropylagmatine ureohydrolase)

B1: CdmS (caldomycin synthase) (Thermus thermophilus HB8; V6M) (protein)
chain: MQKKELLSTPVVPIDIKAFDAGPILEAMGKTAFQARNLHRAAEIYLRMLEDDCAVILTLAGSLVSAGQGLIVHDLIRKGLVDVIVATGANIVDQDFFEALGHRHYQGDPRADDEALRRLWIDRIYDTYIDEEELRHTDYTVAEIADGLEPRPYSSREFIWHMGRYLAERGLGEKSIVRAAYEEGVPIFVPAFSDSSAGFGLVYHQVKRPEAHVTIDSVADFRELTEIKLKAGTTGLVMLGGGVPKNFAQDIVVAAEVLGHRVEMHKYAIQITVADERDGGLSGSTLSEAQSWGKVDARLSQMVFAEATLAFPLLASYVWHRAPARAKRRYAELFREKAPA
notes: full-length gene in pET21b (NdeI/EcoRI), E. coli BL21(DE3) pLysS; no tag stated; heat treatment and Butyl column; 38 kDa on SDS-PAGE
Km [1]: 95 ± 6 µM

B2: TtSpeBap (aminopropylagmatine ureohydrolase) (Thermus thermophilus HB8) (protein)
chain: MRLVFGEKDTPYEEARVVVLPVPYDLSLSFLPGARRGPEAILLASRELEPFLLELGAAPEEVGIHAAEPVPWVAGMAEESHRLIREEALRHLRAGKWVVALGGDHSVTHPLVQAHREALGDFSLLHVDAHADLYPEWQGSVYSHASPFYRLLTEGFPLVQVGIRAMDRDSLRLARKKGVALFPAHRIHREGLPLDEILRALGKRVYISLDFDALDPSLMPSVGTPLPGGLSYRQVVDLLEAVFREKEVVGMDFVELSPNGQFHAEMTAAQLVYHAIGLKGLQAGWLSREVDHI
Km [2]: 3840 ± 840 µM | Vmax [2]: 2920 µmol/min/mg | kcat [2]: 1580 ± 230 s⁻¹ | kcat/Km [2]: 419000 ± 32000 M⁻¹ s⁻¹
